The values that follow come from the supplement of paper PMC10567573.

First the molecules themselves.
B1: FBXO34 (parent)
chain: ASSVESTLPVLEASSWKKQVSHDF
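Further: lentivirally expressed fusions sorted by FACS into six bins by GFP to DsRed ratio, PSI derived from sequencing read proportions per bin multiplied by bin number.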

The variants in this data set derive from B1. As to the kind of experiment: protein stability index of a GFP-peptide fusion (GPS, HEK-293T) (PSI 1-6); higher = more stable. To be noted: c terminus: a fixed tail appended.
YSSVESTLPVLEASSWKKQVSHDF: the protein stability index was 1.78.

On to PSSVESTLPVLEASSWKKQVSHDF, for which the protein stability index came out at 2.64.

Consider TSSVESTLPVLEASSWKKQVSHDF, for which the protein stability index turned out to be 2.79.

With MSSVESTLPVLEASSWKKQVSHDF, the protein stability index was 2.71.

SSSVESTLPVLEASSWKKQVSHDF: the protein stability index worked out at 3.36.

Take VSSVESTLPVLEASSWKKQVSHDF: the protein stability index came to 2.27.

NSSVESTLPVLEASSWKKQVSHDF: the protein stability index was 2.9.

Regarding QSSVESTLPVLEASSWKKQVSHDF, the protein stability index is 2.44.

RSSVESTLPVLEASSWKKQVSHDF: the protein stability index turned out to be 2.97.

As for LSSVESTLPVLEASSWKKQVSHDF, the protein stability index was determined as 3.35.

As to ASSFESTLPVLEASSWKKQVSHDF, the protein stability index was 2.1.

For the variant ASSYESTLPVLEASSWKKQVSHDF, the protein stability index turned out to be 2.46.

Regarding ASSGESTLPVLEASSWKKQVSHDF, the protein stability index turned out to be 3.15.

Take ASSIESTLPVLEASSWKKQVSHDF: the protein stability index is 2.75.

With ASSEESTLPVLEASSWKKQVSHDF, the protein stability index worked out at 3.67.

In the case of ASSDESTLPVLEASSWKKQVSHDF, the protein stability index came out at 2.4.

For the variant ASSRESTLPVLEASSWKKQVSHDF, the protein stability index is 2.64.

Regarding ASSPESTLPVLEASSWKKQVSHDF, the protein stability index was determined as 2.77.

For ASSMESTLPVLEASSWKKQVSHDF, the protein stability index stood at 2.51.

Turning to ASSQESTLPVLEASSWKKQVSHDF, the protein stability index was determined as 3.53.

For the variant ASSTESTLPVLEASSWKKQVSHDF, the protein stability index stood at 2.88.

In the case of ASSCESTLPVLEASSWKKQVSHDF, the protein stability index was determined as 2.45.

As to ASSAESTLPVLEASSWKKQVSHDF, the protein stability index turned out to be 3.39.

On to ASSSESTLPVLEASSWKKQVSHDF, for which the protein stability index came out at 3.01.

In the case of ASSHESTLPVLEASSWKKQVSHDF, the protein stability index amounted to 3.39.

On to ASSWESTLPVLEASSWKKQVSHDF, for which the protein stability index amounted to 2.5.

On to ALSVESTLPVLEASSWKKQVSHDF, for which the protein stability index was found to be 1.47.

For ARSVESTLPVLEASSWKKQVSHDF, the protein stability index came to 2.8.

Consider AYSVESTLPVLEASSWKKQVSHDF, for which the protein stability index is 2.28.

Regarding AASVESTLPVLEASSWKKQVSHDF, the protein stability index is 2.81.

With APSVESTLPVLEASSWKKQVSHDF, the protein stability index was found to be 3.46.

Take ANSVESTLPVLEASSWKKQVSHDF: the protein stability index was found to be 2.58.

On to AWSVESTLPVLEASSWKKQVSHDF, for which the protein stability index was found to be 2.56.

For ACSVESTLPVLEASSWKKQVSHDF, the protein stability index is 1.85.

Regarding AVSVESTLPVLEASSWKKQVSHDF, the protein stability index is 2.92.

For AISVESTLPVLEASSWKKQVSHDF, the protein stability index worked out at 2.26.

Turning to AFSVESTLPVLEASSWKKQVSHDF, the protein stability index turned out to be 1.92.

With ATSVESTLPVLEASSWKKQVSHDF, the protein stability index stood at 3.39.

Regarding AQSVESTLPVLEASSWKKQVSHDF, the protein stability index worked out at 3.09.

For the variant AGSVESTLPVLEASSWKKQVSHDF, the protein stability index worked out at 2.81.

With AESVESTLPVLEASSWKKQVSHDF, the protein stability index was 3.94.

ADSVESTLPVLEASSWKKQVSHDF: the protein stability index is 3.18.

As to AHSVESTLPVLEASSWKKQVSHDF, the protein stability index worked out at 2.4.

For the variant AKSVESTLPVLEASSWKKQVSHDF, the protein stability index is 3.04.

Consider ASSVESTVPVLEASSWKKQVSHDF, for which the protein stability index was determined as 1.83.

For ASSVESTPPVLEASSWKKQVSHDF, the protein stability index worked out at 2.66.

As for ASSVESTRPVLEASSWKKQVSHDF, the protein stability index came out at 3.05.

Turning to ASSVESTHPVLEASSWKKQVSHDF, the protein stability index was determined as 2.89.

ASSVESTIPVLEASSWKKQVSHDF: the protein stability index amounted to 2.82.

As to ASSVESTQPVLEASSWKKQVSHDF, the protein stability index was found to be 2.04.

With ASSVESTGPVLEASSWKKQVSHDF, the protein stability index was 3.59.

Regarding ASSVESTKPVLEASSWKKQVSHDF, the protein stability index is 3.22.

As for ASSVESTTPVLEASSWKKQVSHDF, the protein stability index is 3.38.

Regarding ASSVESTMPVLEASSWKKQVSHDF, the protein stability index amounted to 1.91.

ASSVESTSPVLEASSWKKQVSHDF: the protein stability index amounted to 3.57.

With ASSVESTEPVLEASSWKKQVSHDF, the protein stability index turned out to be 3.38.

In the case of ASSVESTFPVLEASSWKKQVSHDF, the protein stability index turned out to be 2.52.

ASSVESTYPVLEASSWKKQVSHDF: the protein stability index was determined as 2.39.

Regarding ASSVESTCPVLEASSWKKQVSHDF, the protein stability index worked out at 3.4.

As to ASEVESTLPVLEASSWKKQVSHDF, the protein stability index turned out to be 3.72.

As to ASMVESTLPVLEASSWKKQVSHDF, the protein stability index came to 2.63.

With ASVVESTLPVLEASSWKKQVSHDF, the protein stability index worked out at 2.49.

For ASKVESTLPVLEASSWKKQVSHDF, the protein stability index came to 2.56.

For the variant ASYVESTLPVLEASSWKKQVSHDF, the protein stability index was 2.46.

Consider ASCVESTLPVLEASSWKKQVSHDF, for which the protein stability index was 2.19.

As to ASWVESTLPVLEASSWKKQVSHDF, the protein stability index turned out to be 2.02.

Turning to ASHVESTLPVLEASSWKKQVSHDF, the protein stability index came out at 3.38.

In the case of ASAVESTLPVLEASSWKKQVSHDF, the protein stability index is 1.86.

Turning to ASPVESTLPVLEASSWKKQVSHDF, the protein stability index was 3.31.

Regarding ASNVESTLPVLEASSWKKQVSHDF, the protein stability index is 3.07.

ASGVESTLPVLEASSWKKQVSHDF: the protein stability index stood at 3.27.

For ASDVESTLPVLEASSWKKQVSHDF, the protein stability index was 3.29.

Turning to ASTVESTLPVLEASSWKKQVSHDF, the protein stability index is 3.22.

Take ASFVESTLPVLEASSWKKQVSHDF: the protein stability index came out at 2.38.

Take ASIVESTLPVLEASSWKKQVSHDF: the protein stability index stood at 2.69.

Take ASQVESTLPVLEASSWKKQVSHDF: the protein stability index is 2.88.

For ASLVESTLPVLEASSWKKQVSHDF, the protein stability index amounted to 2.62.

Regarding ASSVESHLPVLEASSWKKQVSHDF, the protein stability index is 3.21.

Turning to ASSVESQLPVLEASSWKKQVSHDF, the protein stability index was determined as 4.86.

In the case of ASSVESPLPVLEASSWKKQVSHDF, the protein stability index was 2.31.

Regarding ASSVESVLPVLEASSWKKQVSHDF, the protein stability index came out at 2.85.

Take ASSVESCLPVLEASSWKKQVSHDF: the protein stability index was 3.31.

Turning to ASSVESNLPVLEASSWKKQVSHDF, the protein stability index turned out to be 3.55.

For ASSVESDLPVLEASSWKKQVSHDF, the protein stability index is 3.63.

On to ASSVESMLPVLEASSWKKQVSHDF, for which the protein stability index was found to be 2.48.

ASSVESFLPVLEASSWKKQVSHDF: the protein stability index was 2.92.

In the case of ASSVESALPVLEASSWKKQVSHDF, the protein stability index was 2.9.

As to ASSVESRLPVLEASSWKKQVSHDF, the protein stability index came to 2.7.

Consider ASSVESKLPVLEASSWKKQVSHDF, for which the protein stability index turned out to be 2.82.

Regarding ASSVESYLPVLEASSWKKQVSHDF, the protein stability index worked out at 3.37.

As for ASSVESLLPVLEASSWKKQVSHDF, the protein stability index was determined as 2.42.

In the case of ASSVESELPVLEASSWKKQVSHDF, the protein stability index turned out to be 2.88.

As for ASSVESSLPVLEASSWKKQVSHDF, the protein stability index was 3.94.

Turning to ASSVESTLPVYEASSWKKQVSHDF, the protein stability index is 2.69.
